Test results from patent CN116284426A.

Legend:
[1] = biological target: CD3εδ-ECD-his (CD3εδ异二聚体蛋白) (UniProt P07766); assay: ELISA, CD3εδ-ECD-his coated at 1 ug/mL (Table 20)
[2] = biological target: CD3εδ-ECD-his (CD3εδ异二聚体蛋白) (UniProt P07766); assay: ELISA, CD3εδ-ECD-his coated at 1 ug/mL, anti-human IgG Fab HRP (Table 15)

EC50 [1]: 0.118 nM
EC50 [2]: 0.13 nM
B1: SP34 (humanized anti-CD3 monoclonal antibody) (antibody, human IgG1, kappa, V domains shown)
VH: EVQLVESGGGLVQPGGSLRLSCAASGFTFNTYAMNWVRQAPGKGLEWVARIRSKYNNYATYYADSVKDRFTISRDDSKNTLYLQMNSLRAEDTAVYYCVRHGNFGNSYVSWFAYWGQGTLVTVSS
VL: QAVVTQEPSLTVSPGGTVTLTCRSSTGAVTTSNYANWVQQKPGQAPRGLIGGTNKRAPGVPARFSGSLLGGKAALTLSGAQPEDEAEYYCALWYSNLWVFGQGTKVEIKR
